These results are taken from publication PMC3069404 (The Journal of Biological Chemistry, 2011).

The target of assay [1] is Cse4/H4 (S. cerevisiae, UniProt P36012 1-229; P02309 1-103). Description: reconstitution of the complex from the separate proteins.
The target of assay [2] is Cse4 (recombinant) (S. cerevisiae, UniProt P36012 1-229). The assay is described as above.
Cse4 (recombinant), sequence (P36012 whole entry): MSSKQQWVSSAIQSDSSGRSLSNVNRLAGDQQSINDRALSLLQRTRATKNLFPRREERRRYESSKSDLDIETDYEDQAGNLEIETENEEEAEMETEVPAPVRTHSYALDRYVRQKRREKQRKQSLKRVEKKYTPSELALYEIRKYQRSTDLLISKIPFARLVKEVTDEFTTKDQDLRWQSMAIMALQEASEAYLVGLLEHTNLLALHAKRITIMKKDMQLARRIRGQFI

Cse4/H4, sequence (P36012 whole entry, one chain of several): as the sequence (P36012 whole entry) above

B1: His6-Scm3-Δ25N (recombinant) (domain or fragment, S. cerevisiae, UniProt Q12334 26-223, looked up)
chain: ESGKKSESKIRKHSDCNPVHRVYPPNIEKRKTKKDDGISRPIAERNGHVYIMSKENHIIPKLTDDEVMERHKLADENMRKVWSNIISKYESIEEQGDLVDLKTGEIVEDNGHIKTLTANNSTKDKRTKYTSVLRDIIDISDEEDGDKNDEYTLWANDSEASDSEVDADNDTEEEKDEKLIDADFKKYEAKLSKRILRD
For the molecule B1, the binding result in assay [1] and in assay [2] was “binds” each time.
